The values that follow come from patent US20130171184A1.

This assay has as its target Neisseria meningitidis Hsf (Msf) of strain H44/76, expressed on meningococci (Neisseria meningitidis strain H44/76) (UniProt Q7DDJ2). In words: ELISA, bacteria preincubated with 25 µg/ml peptide, binding to 2.5 µg/ml immobilised aVn. For orientation: In an ELISA, binding on a coated surface is turned into a signal by an enzyme label.

Sequence of Neisseria meningitidis Hsf (Msf) of strain H44/76, expressed on meningococci (Neisseria meningitidis strain H44/76) (Q7DDJ2 52-591): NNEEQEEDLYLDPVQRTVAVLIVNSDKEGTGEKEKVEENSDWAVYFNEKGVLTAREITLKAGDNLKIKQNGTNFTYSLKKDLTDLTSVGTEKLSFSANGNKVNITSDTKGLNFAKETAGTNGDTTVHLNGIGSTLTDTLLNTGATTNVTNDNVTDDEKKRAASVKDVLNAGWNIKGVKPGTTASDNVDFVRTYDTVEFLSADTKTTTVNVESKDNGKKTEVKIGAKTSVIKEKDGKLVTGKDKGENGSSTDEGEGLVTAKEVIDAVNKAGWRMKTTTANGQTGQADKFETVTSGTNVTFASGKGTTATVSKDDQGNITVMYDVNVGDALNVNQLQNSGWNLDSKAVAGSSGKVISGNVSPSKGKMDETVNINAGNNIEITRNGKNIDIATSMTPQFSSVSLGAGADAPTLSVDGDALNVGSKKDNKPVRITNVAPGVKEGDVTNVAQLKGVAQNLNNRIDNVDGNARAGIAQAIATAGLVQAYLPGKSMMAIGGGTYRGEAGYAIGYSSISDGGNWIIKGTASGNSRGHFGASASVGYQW

In the case of “biotinylated sulphated vitronectin peptide VA-26S (amino acids 43-68)”, the reduction in Msf binding to aVn is 30%.
